Data published in paper PMC8766471, “Mutations affecting the N-terminal domains of SHANK3 point to different pathomechanisms in neurodevelopmental disorders” (Scientific Reports, 2022).

B1: Shank3 N-terminus (SPN + Ank domains, residues 1-339), WT, mRFP-tagged [rat] / δ-catenin, GFP-tagged [mouse] (parent complex)
chain 1: MDGPGASAVVVRVGIPDLQQTKCLRLDPTAPVWAAKQRVLCALNHSLQDALNYGLFQPPSRGRAGKFLDEERLLQDYPPNLDTPLPYLEFRYKRRVYAQNLIDDKQFAKLHTKANLKKFMDYVQLHSTDKVARLLDKGLDPNFHDPDSGECPLSLAAQLDNATDLLKVLRNGGAHLDFRTRDGLTAVHCATRQRNAGALTTLLDLGASPDYKDSRGLTPLYHSALGGGDALCCELLLHDHAQLGTTDENGWQEIHQACRFGHVQHLEHLLFYGANMGAQNASGNTALHICALYNQESCARVLLFRGANKDVRNYNSQTAFQVAIIAGNFELAEVIKTHK
chain 2: MFARKQSGAAPFGAMPVPDQPPSASEKNSSLSPGLNTSNGDGSETETTSAILASVKEQELQFERLTRELEAERQIVASQLERCKLGSETGSMSSISSAGEQFHWQTQDGQKDIEDELTTGLELVDSCIRSLQESGILDPQDYSTSERPSLLSQSALQLNSKPEGSFQYPASYHSNQTLALGDTAPSQLPARSTQARAAGQSFSQGTTGRAGHLAGSEPAPPPPPPREPFAPSLGSAFHLPDAPPAAAALYYSSSTLPAPPRGGSPLTTTQGGSPTKLQRGGSAPEGAAYAAPRGSSPKQSPSRLAKSYSTSSPINIVVSSAGLSPIRVTSPPTVQSTISSSPIHQLSSTIGTYATLSPTKRLVHASEQYSKHSQELYATATLQRPGSLAAGSRASYSSQHGHLAPELRALQSPEHHIDPIYEDRVYQKPPMRSLSQSQGDPLPPAHTGTFRTSTAPSSPGVDSVPLQRTGSQHGPQNAAAATFQRASYAAGPASNYADPYRQLQYCASVDSPYSKSGPALPPEGTLARSPSIDSIQKDPREFGWRDPELPEVIQMLQHQFPSVQSNAAAYLQHLCFGDNKIKAEIRRQGGIQLLVDLLDHRMTEVHRSACGALRNLVYGKANDDNKIALKNCGGIPALVRLLRKTTDLEIRELVTGVLWNLSSCDALKMPIIQDALAVLTNAVIIPHSGWENSPLQDDRKIQLHSSQVLRNATGCLRNVSSAGEEARRRMRECDGLTDALLYVIQSALGSSEIDSKTVENCVCILRNLSYRLAAETSQGQHMGTDELDGLLCGETNGKDTESSGCWGKKKKKKKSQDQWDGVGPLPDCAEPPKGIQMLWHPSIVKPYLTLLSECSNPDTLEGAAGALQNLAAGSWKGWAEDVAGMAYALRSLPEGAPCLPQWSVYIRAAVRKEKGLPILVELLRIDNDRVVCAVATALRNMALDVRNKELIGKYAMRDLVHRLPGGNNSNNSGSKAMSDDTVTAVCCTLHEVITKNMENAKALRDAGGIEKLVGISKSKGDKHSPKVVKAASQVLNSMWQYRDLRSLYKKDGWSQYHFVASSSTIERDRQRPYSSSRTPSISPVRVSPNNRSASAPASPREMISLKERKTDYESAGNNATYHGTKGEHTSRKDTMTAQNTGVSTLYRNSYGAPAEDIKQNQVSTQPVPQEPSRKDYETYQPFPNSTRNYDESFFEDQVHHRPPASEYTMHLGLKSTGNYVDFYSAARPYSELNYETSHYPASPDSWV

Variants of: B1
Experiment: co-immunoprecipitation (mRFP-trap) with Western blot quantification; coexpressed in 293 T cells; three independent experiments; read off a plot

Variant | response
chain 1 MDGPGASAVVVRVGIPDLQQTKCLRLDPTAPVWAAKQRVLCALNHSLQDALNYGLFQPPSRGRAGKFLDEERLLQDYPPNLDTPLPYLEFRYKRRVYAQNLIDDKPFAKLHTKANLKKFMDYVQLHSTDKVARLLDKGLDPNFHDPDSGECPLSLAAQLDNATDLLKVLRNGGAHLDFRTRDGLTAVHCATRQRNAGALTTLLDLGASPDYKDSRGLTPLYHSALGGGDALCCELLLHDHAQLGTTDENGWQEIHQACRFGHVQHLEHLLFYGANMGAQNASGNTALHICALYNQESCARVLLFRGANKDVRNYNSQTAFQVAIIAGNFELAEVIKTHK [chain 1 Q106P] | ~0.07
chain 1 MDGPGASAVVVRVGIPDLQQTKCLRLDPTAPVWAAKQRVLCALNHSLQDALNYGLFQPPSRGRAGKFLDEERLLQDYPPNLDTPLPYLEFRYKRRVYAQNLIDDKQFAKLHTKANLKKFMDYVQLHSTDKVARLLDKGLDPNFHDPDSGECPLSLAAQLDNATDLLKVLRNGGAHLDFRTRDGLTAVHCATRQRNAGALTTLLDLGASPDYKDSRGLTPLYHSALGGGDALCCELLLHDHAQLGTTDENGWQEIHQACRFGHVQHLEHLMFYGANMGAQNASGNTALHICALYNQESCARVLLFRGANKDVRNYNSQTAFQVAIIAGNFELAEVIKTHK [chain 1 L270M] | ~0.066
chain 1 MDGPGASAVVVRVGIPDLQQTKCLRLDPTAPVWAAKQRVLCALNHSLQDALNYGLFQPPSRGRAGKFLGEERLLQDYPPNLDTPLPYLEFRYKRRVYAQNLIDDKQFAKLHTKANLKKFMDYVQLHSTDKVARLLDKGLDPNFHDPDSGECPLSLAAQLDNATDLLKVLRNGGAHLDFRTRDGLTAVHCATRQRNAGALTTLLDLGASPDYKDSRGLTPLYHSALGGGDALCCELLLHDHAQLGTTDENGWQEIHQACRFGHVQHLEHLLFYGANMGAQNASGNTALHICALYNQESCARVLLFRGANKDVRNYNSQTAFQVAIIAGNFELAEVIKTHK [chain 1 D69G] | ~0.13
chain 1 MDGPGASAVVVRVGIPDLQQTKCLRLDPTAPVWAAKQRVLCALNHSLQDALNYGLFQPPSRGRAGKFLDEERLLQDYPPNLDTPLPYLEFRYKRRVYAQNLIDDKQFAKLHTKANLKKFMDYVQLHSTDKVARLLDKGLDPNFHDPDSGECPLSLAAQLDNATDLLKVLRNGGAHLDFRTRDGLTAVHCATRQRNAGALTTLLDLGASPDYKDSRGLTPLYHSALGGGDALCCELLLHDHAQLGTTDENCWQEIHQACRFGHVQHLEHLLFYGANMGAQNASGNTALHICALYNQESCARVLLFRGANKDVRNYNSQTAFQVAIIAGNFELAEVIKTHK [chain 1 G250C] | ~0.05
chain 1 MDGPGASAVVVRVGIPDLQQTKCLRLDPTAPVWAAKQRVLCALNHSLQDALNYGLFQPPSRGRAGKFLDEERLLQDYPPNLDTPLPYLEFRYKRRVYAQNLIDDKQFAKLHTKANLKKFMDYVQLHSTDKVARLLDKGLDANFHDPDSGECPLSLAAQLDNATDLLKVLRNGGAHLDFRTRDGLTAVHCATRQRNAGALTTLLDLGASPDYKDSRGLTPLYHSALGGGDALCCELLLHDHAQLGTTDENGWQEIHQACRFGHVQHLEHLLFYGANMGAQNASGNTALHICALYNQESCARVLLFRGANKDVRNYNSQTAFQVAIIAGNFELAEVIKTHK [chain 1 P141A] | ~0.022

Other lines, results leading:

response | Variant
~0.05 | chain 1 MDGPGASAVVVRVGIPDLQQTKCLRLDPTAPVWAAKQRVLCALNHSLQDALNYGLFQPPSRGRAGKFLDEERLLQDYPPNLDTPLPYLEFRYKRRVYAQNLIDDKQFAKLHTKANLKKFMDYVQLHSTDKVARLLDKGLDPNFHDPDSGECPLSLAAQLDNATDLLKVLRNGGAHLDFRTRDGLTAVHCATRQRNAGALTTLLDLGASPDYKDSRGLTPLYHSALGGGDALCCELLLHDHAQLGTTDENGWQEIHHACRFGHVQHLEHLLFYGANMGAQNASGNTALHICALYNQESCARVLLFRGANKDVRNYNSQTAFQVAIIAGNFELAEVIKTHK [chain 1 Q256H]
~0.14 | chain 1 MDGPGASAVVVRVGIPDLQQTKCLRLDPTAPVWAAKQRVLCALNHSLQDALNYGLFQPPSRGRAGKFLDEERLLQDYPPNLDTPLPYLEFRYKRRVYAQNLIDDKQFAKLHTKANLKKFMDYVQLHSTDKVARLLDKGLDPNFHDPDSGECPLSLAAQLDNATDLLKVLRNGGAHLDFRTRDGLTAVHCATRQRNAGALTTLLDLGASPDYKDSRGLTPLYHSALGGGDALCCELLLHDHAQLGTTDENGWQEIHQACRFGHVQHLEHLLFYGANMGAQNASGNTALHICALYNQESCARVLLFRGANKDVRNYNSRTAFQVAIIAGNFELAEVIKTHK [chain 1 Q317R]
~0.092 | chain 1 MDGPGASAVVVRVGIPDLQQTKCLRLDPTAPVWAAKQRVLCALNHSLQDALNYGLFQPPSRGRAGKFLDEERLLQDYPPNLDTPLPYLEFRYKRRVYAQNLIDDKQFAKLHTKANLKKFMDYVQLHSTDKVARLLDKGLDPNFHDPDSGECPLSLAAQLDNATDLLKVLRNGGAHLDFRTRDGLTAVHCATRQRNAGALTTLLDLGASPDYKDSRGLTPLYHSALGGGDALCCELLLHDHAQLGTTDENGWQEIHQACRFGHVQHLEHLLFYGANMGAQNASGNTALHICALYNQESCARVLLFRGANKDVRNYNSQTAFQVAIIAGNFELAEVIKSHK [chain 1 T337S]
~0.068 | chain 1 MDGPGASAVVVRVGIPDLQQTKCLRLDPTAPVWAAKQRVLCALNHSLQDALNYGLFQPPSRGRAGKFLDEERLLQDYPPNLDTPLPYLEFRYKRRVYAQNLIDDKQFAKLHTKANLKKFMDYVQLHSTDKVARLLDKGLDPNFHDPDSGECPLSLAAQLDNATDLLKVLRNGGAHLDFRTRDGLTAVHCATRQRNAGALTTLLDLGASPDYKDSRGLTPLYHSALGGGDALCCELLLHDHAQLGTTDENGWQEIHQACRFGHVQHLEHLLFCGANMGAQNASGNTALHICALYNQESCARVLLFRGANKDVRNYNSQTAFQVAIIAGNFELAEVIKTHK [chain 1 Y272C]
